Key:
PriA triple variant [1] = biological target: T1, PriA triple variant (Escherichia coli, UniProt P17888 1-732, W186A;R187A;Y190A); test: EMSA; same as wild type; 5 mM EDTA; EMSA: 0.1-10 nM PriA, 1 nM fork, 50 mM Tris-HCl pH 8.0, 0.1 mg/mL BSA, 2 mM DTT, 5 mM EDTA, 6% glycerol, 30 min on ice, 4% PAGE; settings: protein: recombinant; tags: His-tag; label: radiolabel; fork 1:2, 60 bp parental duplex, two 38-nt ssDNA arms
PriA Arg187Ala [2] = biological target: T2, PriA Arg187Ala (Escherichia coli, UniProt P17888 1-732, R187A); test: as above; settings: protein: recombinant; tags: His-tag; label: radiolabel; fork 1:2, 60 bp parental duplex, two 38-nt ssDNA arms
PriA Tyr190Ala [3] = biological target: T3, PriA Tyr190Ala (Escherichia coli, UniProt P17888 1-732, Y190A); test: as above; settings: protein: recombinant; tags: His-tag; label: radiolabel; fork 1:2, 60 bp parental duplex, two 38-nt ssDNA arms
PriA Trp186Ala [4] = biological target: T4, PriA Trp186Ala (Escherichia coli, UniProt P17888 1-732, W186A); test: as above; settings: protein: recombinant; tags: His-tag; label: radiolabel; fork 1:2, 60 bp parental duplex, two 38-nt ssDNA arms
PriA wild-type [5] = biological target: T5, PriA wild-type (Escherichia coli, UniProt P17888 1-732); test: EMSA; three shifted bands; 5 mM EDTA; EMSA: 0.1-10 nM PriA, 1 nM fork, 50 mM Tris-HCl pH 8.0, 0.1 mg/mL BSA, 2 mM DTT, 5 mM EDTA, 6% glycerol, 30 min on ice, 4% PAGE; settings: protein: recombinant; tags: N-terminal His6; label: radiolabel; fork 1:2, 60 bp parental duplex, two 38-nt ssDNA arms
PriA triple variant [6] = biological target: T1, PriA triple variant; test: EMSA; similar to wild type; 5 mM EDTA; EMSA: 0.1-10 nM PriA, 1 nM fork, 50 mM Tris-HCl pH 8.0, 0.1 mg/mL BSA, 2 mM DTT, 5 mM EDTA, 6% glycerol, 30 min on ice, 4% PAGE; settings: protein: recombinant; tags: His-tag; label: radiolabel; fork 1:2 (60 bp) 2:3 (33 bp nascent lagging) 1:4 (38 bp nascent leading), 5-nt lagging gap
PriA Arg187Ala [7] = biological target: T2, PriA Arg187Ala; test: as above; settings: protein: recombinant; tags: His-tag; label: radiolabel; fork 1:2 (60 bp) 2:3 (33 bp nascent lagging) 1:4 (38 bp nascent leading), 5-nt lagging gap
PriA Tyr190Ala [8] = biological target: T3, PriA Tyr190Ala; test: as above; settings: protein: recombinant; tags: His-tag; label: radiolabel; fork 1:2 (60 bp) 2:3 (33 bp nascent lagging) 1:4 (38 bp nascent leading), 5-nt lagging gap
PriA Trp186Ala [9] = biological target: T4, PriA Trp186Ala; test: as above; settings: protein: recombinant; tags: His-tag; label: radiolabel; fork 1:2 (60 bp) 2:3 (33 bp nascent lagging) 1:4 (38 bp nascent leading), 5-nt lagging gap
PriA wild-type [10] = biological target: T5, PriA wild-type; test: EMSA; one dominant shifted species; 5 mM EDTA; EMSA: 0.1-10 nM PriA, 1 nM fork, 50 mM Tris-HCl pH 8.0, 0.1 mg/mL BSA, 2 mM DTT, 5 mM EDTA, 6% glycerol, 30 min on ice, 4% PAGE; settings: protein: recombinant; tags: N-terminal His6; label: radiolabel; fork 1:2 (60 bp) 2:3 (33 bp nascent lagging) 1:4 (38 bp nascent leading), 5-nt lagging gap

Measured: binding result

B1: two-stranded fork (1b-98/3L-98) (mixed)
DNA 1: GCAAGCCTTCTACAGGTCGACCGTCCATGGCGACTCGAGACCGCAATACGGATAAGGGCTGAGCACGCCGACGAACATTCACCACGCCAGACCACGTA
DNA 2: GACTATCTACGTCCGAGGCTCGCGCCGCAGACTCATTTAGCCCTTATCCGTATTGCGGTCTCGAGTCGCCATGGACGGTCGACCTGTAGAAGGCTTGC
binds: PriA triple variant [1] | PriA Arg187Ala [2] | PriA Tyr190Ala [3] | PriA Trp186Ala [4] | PriA wild-type [5]

B2: four-stranded fork (1b-98/3L-98/b-33/11b-38) (mixed)
DNA 1: B1 DNA 1
DNA 2: B1 DNA 2
DNA 3: AGTCTGCGGCGCGAGCCTCGGACGTAGATAGTC
DNA 4: TACGTGGTCTGGCGTGGTGAATGTTCGTCGGCGTGCTC
binds: PriA triple variant [6] | PriA Arg187Ala [7] | PriA Tyr190Ala [8] | PriA Trp186Ala [9] | PriA wild-type [10]

— publication PMC8323898, “Examination of the roles of a conserved motif in the PriA helicase in structure-specific DNA unwinding and processivity”
